Experimental data reported in article PMC9364107.

Target: SF3B1 residues 147–462 (ULM-containing N-terminal region) (human) (UniProt O75533)
Assay: ITC

Chain of SF3B1 residues 147–462 (ULM-containing N-terminal region) (human) (O75533 147-462): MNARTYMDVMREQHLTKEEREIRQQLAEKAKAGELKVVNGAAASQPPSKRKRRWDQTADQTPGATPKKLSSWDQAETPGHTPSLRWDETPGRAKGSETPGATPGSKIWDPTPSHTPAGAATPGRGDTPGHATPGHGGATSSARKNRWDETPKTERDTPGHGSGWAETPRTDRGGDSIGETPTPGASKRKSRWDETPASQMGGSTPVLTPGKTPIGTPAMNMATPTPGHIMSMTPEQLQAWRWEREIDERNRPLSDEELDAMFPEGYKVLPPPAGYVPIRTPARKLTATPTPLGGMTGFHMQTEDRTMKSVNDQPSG

“U2AF2^12UL (nearly full-length U2AF2, residues 141–471) (domain or fragment)” was tested, and the stoichiometry N was 2.
